# Reference: paper PMC5127646 (2016)
# B1: SmN peptide, residues 219-229 (GMRPPPPGIRG) [human] / RBM5 OCRE domain (residues 451-511), wild type [human] (parent complex)
# chain 1: GMRPPPPGIRG
# chain 2: GAMGTKYAVPDTSTYQYDESSGYYYDPTTGLYYDPNSQYYYNSLTQQYLYWDGEKETYVPAAES
# Variants of: B1
# Assay: NMR titration (chemical shift perturbation score); 1:10 ratio of OCRE:peptide; read off a plot
row,Variant,ratio to parent
1,"chain 1 R3A, chain 1 R10A",~0.24
2,chain 1 R10A,~0.67
3,"chain 1 R3E, chain 1 R10E",~0.05
4,chain 1 R10E,~0.54
5,chain 1 R3E,~0.19
6,"chain 1 P4A, chain 1 P6A",~0.27
7,chain 1 R3A,~0.51
